Results reported in US20240052047A1 (Pfizer, published 2024).

What was measured:
[1] = biological target: human IL27 receptor (IL27RA/gp130 heterodimer) on human cells (human, UniProt Q6UWB1 33-636; P40189 23-918); experiment: cell-based or functional assay
Cynomolgus monkey gp130 = biological target: T1, Cynomolgus monkey gp130 (cynomolgus monkey, UniProt P40189 23-619 (human entry), limits assumed); experiment: SPR Biacore 8K+, 37 C; mAb-4894 captured by anti-Fab, antigen as analyte; 1:1 Langmuir fit
T1 construct: Soluble SPR analyte; also called Cyno GP130; cyGP130
T1 chain: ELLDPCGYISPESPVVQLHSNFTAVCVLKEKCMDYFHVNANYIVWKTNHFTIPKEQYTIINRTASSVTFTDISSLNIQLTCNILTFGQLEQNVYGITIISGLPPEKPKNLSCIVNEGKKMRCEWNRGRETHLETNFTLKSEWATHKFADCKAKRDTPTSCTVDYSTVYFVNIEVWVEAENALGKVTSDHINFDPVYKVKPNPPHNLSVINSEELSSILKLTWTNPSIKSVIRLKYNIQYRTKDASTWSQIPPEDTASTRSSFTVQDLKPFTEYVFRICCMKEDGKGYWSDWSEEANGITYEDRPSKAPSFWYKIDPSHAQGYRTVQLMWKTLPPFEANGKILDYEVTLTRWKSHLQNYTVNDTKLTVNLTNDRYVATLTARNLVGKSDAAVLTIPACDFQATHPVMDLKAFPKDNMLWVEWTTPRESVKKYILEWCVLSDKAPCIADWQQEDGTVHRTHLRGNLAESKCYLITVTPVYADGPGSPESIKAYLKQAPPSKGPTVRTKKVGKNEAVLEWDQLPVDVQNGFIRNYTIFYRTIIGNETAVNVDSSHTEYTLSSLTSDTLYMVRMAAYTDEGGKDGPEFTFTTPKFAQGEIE
Protocol: (§1) The crossreactivity of mAb-4894 to human and cynomolgus monkey antigens, gp130 (human—SEQ ID NO: 45, cynomolgus—SEQ ID No: 46) and IL27RA (human—SEQ ID NO: 41, cynomolgus—SEQ ID No: 42), was measured by surface plasmon resonance by anti-FAB capture of mAb-4894 (containing arms of anti-IL27RA-4880 EE and anti-gp130-4875 RR) on a biacore chip. Human or cynomolgus monkey IL27RA or gp130 was flowed over the chip and on and off rates were determined, and the affinity constants calculated.
(§2) Flow cell 1 for each channel was used as a reference flow cell. After antibody capture, three-fold dilution series of cytokines with concentrations ranging from 405 nM to 15 nM for huGP130 and cyGP130 and 45 nM to 1.67 nM for huIL27R and cyIL27R or HBS-EP+ buffer were injected over the sensor surface for 60 seconds at 50 μl/minute. The dissociation was monitored for 600 seconds and the surface was regenerated with 2 injections of 10 mM Glycine pH 1.7 at 30 μl/minute. The data was double referenced (Myszka, D., J. Mol. Recognit 1999; 279-284). Binding affinities and rate constants were determined for human and cyno GP130 and IL27R by fitting the resulting sensorgram data to a 1:1 Langmuir model in BIAcore Insight Evaluation software version 3.0.12.15655 (Cytiva).

Human IL27RA = biological target: T2, Human IL27RA (human, UniProt Q6UWB1 33-516); experiment: as above
T2 construct: Soluble analyte in SPR and antigen in ELISA/screens; also called huIL27R
T2 sequence: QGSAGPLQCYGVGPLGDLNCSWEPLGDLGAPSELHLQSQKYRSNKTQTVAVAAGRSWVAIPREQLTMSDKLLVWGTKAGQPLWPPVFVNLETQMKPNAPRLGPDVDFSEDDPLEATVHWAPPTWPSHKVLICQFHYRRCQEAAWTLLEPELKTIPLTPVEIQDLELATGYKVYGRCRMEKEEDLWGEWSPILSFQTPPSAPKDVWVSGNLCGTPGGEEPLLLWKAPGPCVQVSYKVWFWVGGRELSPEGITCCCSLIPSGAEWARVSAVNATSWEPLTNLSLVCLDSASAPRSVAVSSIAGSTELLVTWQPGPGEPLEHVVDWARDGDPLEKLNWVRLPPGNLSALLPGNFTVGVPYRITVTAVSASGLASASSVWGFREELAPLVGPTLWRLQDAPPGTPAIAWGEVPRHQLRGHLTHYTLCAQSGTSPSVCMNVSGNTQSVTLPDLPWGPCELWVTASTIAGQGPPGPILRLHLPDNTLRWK
Protocol: as §1, §2

Cynomolgus monkey IL27RA = biological target: T3, Cynomolgus monkey IL27RA (cynomolgus monkey); experiment: as above
T3 construct: Soluble SPR analyte; also called Cyno IL27R; cyIL27R
T3 chain: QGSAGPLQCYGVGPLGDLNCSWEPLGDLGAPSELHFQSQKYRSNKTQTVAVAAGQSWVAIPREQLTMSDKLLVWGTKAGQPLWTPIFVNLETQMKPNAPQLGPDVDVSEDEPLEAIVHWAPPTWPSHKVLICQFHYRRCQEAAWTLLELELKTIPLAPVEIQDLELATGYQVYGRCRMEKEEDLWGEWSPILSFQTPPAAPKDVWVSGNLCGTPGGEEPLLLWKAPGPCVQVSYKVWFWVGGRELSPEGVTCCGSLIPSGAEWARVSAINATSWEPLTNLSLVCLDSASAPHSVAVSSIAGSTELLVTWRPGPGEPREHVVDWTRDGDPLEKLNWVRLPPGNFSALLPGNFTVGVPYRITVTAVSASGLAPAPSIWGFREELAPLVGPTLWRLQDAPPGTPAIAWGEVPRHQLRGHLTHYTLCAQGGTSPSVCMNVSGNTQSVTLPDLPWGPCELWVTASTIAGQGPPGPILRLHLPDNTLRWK
Protocol: as §1, §2

human IL27 receptor (IL27RA/gp130 heterodimer) on human cells, sequence (P40189 23-918 limits assumed, one chain of several): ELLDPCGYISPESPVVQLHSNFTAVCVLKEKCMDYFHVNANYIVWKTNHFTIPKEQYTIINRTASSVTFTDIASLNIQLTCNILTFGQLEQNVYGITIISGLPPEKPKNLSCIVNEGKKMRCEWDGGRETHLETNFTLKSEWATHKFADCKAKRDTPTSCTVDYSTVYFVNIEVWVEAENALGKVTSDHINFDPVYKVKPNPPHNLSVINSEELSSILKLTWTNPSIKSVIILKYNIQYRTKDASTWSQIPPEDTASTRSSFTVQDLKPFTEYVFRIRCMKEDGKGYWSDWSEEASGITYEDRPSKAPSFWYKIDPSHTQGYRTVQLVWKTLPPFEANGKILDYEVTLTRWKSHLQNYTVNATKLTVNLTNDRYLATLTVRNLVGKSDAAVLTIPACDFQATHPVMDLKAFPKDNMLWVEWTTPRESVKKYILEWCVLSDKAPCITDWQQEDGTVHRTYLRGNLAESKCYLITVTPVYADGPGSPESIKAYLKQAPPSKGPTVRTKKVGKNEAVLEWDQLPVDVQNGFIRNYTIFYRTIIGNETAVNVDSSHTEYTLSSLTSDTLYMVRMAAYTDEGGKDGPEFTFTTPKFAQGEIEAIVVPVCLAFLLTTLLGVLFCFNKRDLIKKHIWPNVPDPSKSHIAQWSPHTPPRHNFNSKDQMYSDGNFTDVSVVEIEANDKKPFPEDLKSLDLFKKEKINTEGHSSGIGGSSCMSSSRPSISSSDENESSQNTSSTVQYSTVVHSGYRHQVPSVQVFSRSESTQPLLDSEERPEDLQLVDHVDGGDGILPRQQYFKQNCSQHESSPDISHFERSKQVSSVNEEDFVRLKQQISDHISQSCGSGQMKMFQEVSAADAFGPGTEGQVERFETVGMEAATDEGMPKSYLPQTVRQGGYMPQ

- IDO1 mRNA expression in primary cultured human colonocytes, average EC50 [1]: 20 nM
- pSTAT1 in CD3+ T cells from human whole blood, average EC50 [1]: 0.43 nM
- pSTAT3 in CD3+ T cells from human whole blood, average EC50 [1]: 0.23 nM
- Kd (Cynomolgus monkey gp130): 188 nM
- koff (Cynomolgus monkey gp130): 0.0403 s⁻¹
- kon (Cynomolgus monkey gp130): 215000 M⁻¹ s⁻¹
- Kd (Human IL27RA): 0.11 nM
- koff (Human IL27RA): 0.00011 s⁻¹
- kon (Human IL27RA): 998000 M⁻¹ s⁻¹
- Kd (Cynomolgus monkey IL27RA): 1.68 nM
- koff (Cynomolgus monkey IL27RA): 0.00195 s⁻¹
- kon (Cynomolgus monkey IL27RA): 1.17e+06 M⁻¹ s⁻¹
B1: mAb-4894 anti-IL27RA/gp130 bispecific antibody (bispecific antibody, human IgG1)
heavy 1: EVQLVESGGGLVQPGGSLRLSCAASGFTFEYFGLQWVRQAPGKGLEWIGYTSSGGNYEYYEETLKGRFTISRDNAKNSLYLQMNSLRAEDTAVYYCARTKTGDYWGQGTLVTVSSASTKGPSVFPLAPSSKSTSGGTAALGCLVKDYFPEPVTVSWNSGALTSGVHTFPAVLQSSGLYSLSSVVTVPSSSLGTQTYICNVNHKPSNTKVDKKVEPKSCEKTHTCPPCPAPEAAGAPSVFLFPPKPKDTLMISRTPEVTCVVVDVSHEDPEVKFNWYVDGVEVHNAKTKPREEQYNSTYRVVSVLTVLHQDWLNGKEYKCKVSNKALPAPIEKTISKAKGQPREPQVYTLPPSREEMTKNQVSLTCEVKGFYPSDIAVEWESNGQPENNYKTTPPVLDSDGSFFLYSKLTVDKSRWQQGNVFSCSVMHEALHNHYTQKSLSLSPGK
light 1: DIQMTQSPSSLSASVGDRVTITCRASQDIGNSLTWYQQKPGKAPKRVIFGATGLAAGVPSRFSGSGSGTDFTLTISSLQPEDFATYYCLQSKQYPYTFGQGTKLEIKRTVAAPSVFIFPPSDEQLKSGTASVVCLLNNFYPREAKVQWKVDNALQSGNSQESVTEQDSKDSTYSLSSTLTLSKADYEKHKVYACEVTHQGLSSPVTKSFNRGEC
heavy 2: QVQLVQSGAEVKKPGSSVKVSCKVSGGSISSYYWSWVRQAPGQGLEWIGRIYITGNTNYNPSLKDRVTMTVDTSTSTHYMELSSLRSEDTAVYYCAREGPKLGIFDYWGQGTLVTVSSASTKGPSVFPLAPSSKSTSGGTAALGCLVKDYFPEPVTVSWNSGALTSGVHTFPAVLQSSGLYSLSSVVTVPSSSLGTQTYICNVNHKPSNTKVDKKVEPKSCRKTHTCPPCPAPEAAGAPSVFLFPPKPKDTLMISRTPEVTCVVVDVSHEDPEVKFNWYVDGVEVHNAKTKPREEQYNSTYRVVSVLTVLHQDWLNGKEYKCKVSNKALPAPIEKTISKAKGQPREPQVYTLPPSREEMTKNQVSLTCLVKGFYPSDIAVEWESNGQPENNYKTTPPVLDSDGSFFLYSRLTVDKSRWQQGNVFSCSVMHEALHNHYTQKSLSLSPGK
light 2: DIQMTQSPSSLSASVGDRVTITCRASQSVSSSYLAWYQQKPGKAPKLLIYGTESRATGVPSRFSGSGSGTDFTLTISSLQPEDFATYYCQQYGGYPTFGGGTKVEIKRTVAAPSVFIFPPSDEQLKSGTASVVCLLNNFYPREAKVQWKVDNALQSGNSQESVTEQDSKDSTYSLSSTLTLSKADYEKHKVYACEVTHQGLSSPVTKSFNRGEC
notes: Human IgG1 EE/RR heterodimer with L234A, L235A, G237A (EU); also called GBT-IL27R-4894; GBT-IL-27R-4894
